{
  "source": "paper PMC2789240",
  "about": "“Comparative structural, kinetic and inhibitor studies of Trypanosoma brucei trypanothione reductase with T. cruzi^☆” (Molecular and Biochemical Parasitology, 2010)",
  "biological_target": "the molecule itself",
  "experiment": "SEC; 600 ug TbTryR on Superdex 200 10/300, 25 mM HEPES pH 7.5, 100 mM NaCl; mass from BioRad gel filtration standards; data not shown",
  "data": [
    {"protein": "Trypanosoma brucei brucei trypanothione reductase (enzyme, T. b. brucei, UniProt P39051 1-492, looked up, Trypanothione reductase, T. b. brucei strain S427 (MITat 1.4); complete open reading frame amplified from start to stop codon; identical at the amino acid level to genome strain 927 (GeneDB Tb10.406.0520) and to T. b. gambiense TryR; calculated subunit mass 53,156 Da; Flavoprotein: each subunit carries 1 FAD (and 1 NADPH in the crystal); In the crystal model the first residue and the last 2 …) MSKIFDLVVIGAGSGGLEAGWNAATLYKKRVAVIDVQTHHGPPHYAALGGTCVNVGCVPKKLMVTGAQYMDHLRESAGFGWEFDGSSVKANWKKLIAAKNEAVLDINKSYEGMFNDTEGLDFFLGWGSLESKNVVVVRETADPKSAVKERLQADHILLATGSWPQMPAIPGVEHCISSNEAFYLPEPPRRVLTVGGGFISVEFAGIFNAYKPPGGKVTLCYRNNLILRGFDETIREEVTKQLTANGIEIMTNENPAKVSLNTDGSKHVTFESGKTLDVDVVMMAIGRIPRTNDLQLGNVGVKLTPKGGVQVDEFSRTNVPNIYAIGDITDRLMLTPVAINEGAALVDTVFGNKPRKTDHTRVASAVFSIPPIGTCGLIEEVAAKEFEKVAVYMSSFTPLMHNISGSKYKKFVAKIVTNHSDGTVLGVHLLGDGAPEIIQAVGVCLRLNAKISDFYNTIGVHPTSAEELCSMRTPSYYYLKGEKMETLPESSL", "values": [
      {"measurement": "stoichiometry N", "result": 2}
    ]}
  ]
}
